This data set concerns the molecule itself. The data set is described as follows: SEC; as a1, but samples not incubated at 37 °C before the SEC run; monomer to dimer.

For orientation: stoichiometry N means a count of units in the complex or per binding partner.

B1: mFAS gamma-module, construct 7 (2-1517+1870-2195) (domain or fragment, Mus musculus, UniProt P19096 2-2195, looked up)
chain: EEVVIAGMSGKLPESENLQEFWANLIGGVDMVTDDDRRWKAGLYGLPKRSGKLKDLSKFDASFFGVHPKQAHTMDPQLRLLLEVSYEAIVDGGINPASLRGTNTGVWVGVSGSEASEALSRDPETLLGYSMVGCQRAMMANRLSFFFDFKGPSIALDTACSSSLLALQNAYQAIRSGECPAALVGGINLLLKPNTSVQFMKLGMLSPDGTCRSFDDSGSGYCRSEAVVAVLLTKKSLARRVYATILNAGTNTDGSKEQGVTFPSGEVQEQLICSLYQPAGLAPESLEYIEAHGTGTKVGDPQELNGITRSLCAFRQAPLLIGSTKSNMGHPEPASGLAALTKVLLSLEHGVWAPNLHFHNPNPEIPALLDGRLQVVDRPLPVRGGNVGINSFGFGGSNVHVILQPNTRQAPAPTAHAALPHLLHASGRTLEAVQDLLEQGRQHSQDLAFVSMLNDIAATPTAAMPFRGYTVLGVEGRVQEVQQVSTNKRPLWFICSGMGTQWRGMGLSLMRLDSFRESILRSDEAVKPLGVKVSDLLLSTDERTFDDIVHAFVSLTAIQIALIDLLTSVGLKPDGIIGHSLGEVACGYADGCLSQREAVLAAYWRGQCIKDAHLPPGSMAAVGLSWEECKQRCPAGVVPACHNSEDTVTISGPQAAVNEFVEQLKQEGVFAKEVRTGGLAFHSYFMEGIAPTLLQALKKVIREPRPRSARWLSTSIPEAQWQSSLARTSSAEYNVNNLVSPVLFQEALWHIPEHAVVLEIAPHALLQAVLKRGVKSSCTIIPLMKRDHKDNLEFFLTNLGKVHLTGINVNPNALFPPVEFPAPRGTPLISPHIKWDHSQTWDVPVAEDFPNGSSSSSATVYSIDASPESPDHYLVDHCIDGRVIFPGTGYLCLVWKTLARSLGLSLEETPVVFENVSFHQATILPKTGTVALEVRLLEASHAFEVSDTGNLIVSGKVYLWEDPNSKLFDHPEVPTPPESASVSRLTQGEVYKELRLRGYDYGPQFQGICEATLEGEQGKLLWKDNWVTFMDTMLQVSILGSSQQSLQLPTRVTAIYIDPATHRQKVYRLKEDTQVADVTTSRCLGITVSGGIHISRLQTTATSRRQQEQLVPTLEKFVFTPHMEAECLSESTALQKELQLCKGLARALQTKATQQGLKAAMLGQEDPPQHGLPRLLAAACQLQLNGNLQLELGEALAQERLLLPEDPLISGLLNSQALKACVDTALENLSTLKMKVAEVLAGEGHLYSRIPALLNTQPMLQLEYTATDRHPQALKDVQTKLQQHDVAQGQWNPSDPAPSSLGALDLLVCNCALATLGDPALALDNMVAALKEGGFLLVHTVLKGHALGETLACLPSEVQPAPSLLSQEEWESLFSRKALHLVGLKRSFYGTALFLCRRAIPQEKPIFLSVEDTSFQWVDSLKSTLATSSSQPVWLTAMDCPTSGVVGLVNCLRKEPGGHRIRCILLSNLSNTSHAPKLDPGSPELQQVLKHDLVMNVYRDGAWGAFRHFQLEQDKPSKTFCPAHKSYIITGGLGGFGLELARWLVLRGAQRLVLTSRSGIRTGYQAKHIREWRRQGIQVLVSTSNVSSLEGARALIAEATKLGPVGGVFNLAMVLRDAMLENQTPELFQDVNKPKYNGTLNLDRATREACPELDYFVAFSSVSCGRGNAGQTNYGFANSTMERICEQRRHDGLPGLAVQWGAIGDVGIVLEAMGTNDTVIGGTLPQRISSCMEVLDLFLNQPHAVLSSFVLAEKKAVAHGDGDTQRDLVKAVAHILGIRDLAGINLDSTLADLGLDSLMGVEVRQILEREHDLVLPMREVRQLTLRKLQEMSSKTDSATDTT
notes: murine fatty acid synthase 2-2195 with the ER domain deleted (P1517 bridged to S1870); Made from construct 6 as template; also called γ-module
For B1, the “stoichiometry N” value is 2.

B2: mFAS beta-module, construct 8 (2-858+1104-1517+1870-2195) (domain or fragment, Mus musculus, UniProt P19096 2-2195, looked up)
chain: EEVVIAGMSGKLPESENLQEFWANLIGGVDMVTDDDRRWKAGLYGLPKRSGKLKDLSKFDASFFGVHPKQAHTMDPQLRLLLEVSYEAIVDGGINPASLRGTNTGVWVGVSGSEASEALSRDPETLLGYSMVGCQRAMMANRLSFFFDFKGPSIALDTACSSSLLALQNAYQAIRSGECPAALVGGINLLLKPNTSVQFMKLGMLSPDGTCRSFDDSGSGYCRSEAVVAVLLTKKSLARRVYATILNAGTNTDGSKEQGVTFPSGEVQEQLICSLYQPAGLAPESLEYIEAHGTGTKVGDPQELNGITRSLCAFRQAPLLIGSTKSNMGHPEPASGLAALTKVLLSLEHGVWAPNLHFHNPNPEIPALLDGRLQVVDRPLPVRGGNVGINSFGFGGSNVHVILQPNTRQAPAPTAHAALPHLLHASGRTLEAVQDLLEQGRQHSQDLAFVSMLNDIAATPTAAMPFRGYTVLGVEGRVQEVQQVSTNKRPLWFICSGMGTQWRGMGLSLMRLDSFRESILRSDEAVKPLGVKVSDLLLSTDERTFDDIVHAFVSLTAIQIALIDLLTSVGLKPDGIIGHSLGEVACGYADGCLSQREAVLAAYWRGQCIKDAHLPPGSMAAVGLSWEECKQRCPAGVVPACHNSEDTVTISGPQAAVNEFVEQLKQEGVFAKEVRTGGLAFHSYFMEGIAPTLLQALKKVIREPRPRSARWLSTSIPEAQWQSSLARTSSAEYNVNNLVSPVLFQEALWHIPEHAVVLEIAPHALLQAVLKRGVKSSCTIIPLMKRDHKDNLEFFLTNLGKVHLTGINVNPNALFPPVEFPAPRGTPLISPHIKWDHSQTWDVPVAEDFPNGSSSSSSRRQQEQLVPTLEKFVFTPHMEAECLSESTALQKELQLCKGLARALQTKATQQGLKAAMLGQEDPPQHGLPRLLAAACQLQLNGNLQLELGEALAQERLLLPEDPLISGLLNSQALKACVDTALENLSTLKMKVAEVLAGEGHLYSRIPALLNTQPMLQLEYTATDRHPQALKDVQTKLQQHDVAQGQWNPSDPAPSSLGALDLLVCNCALATLGDPALALDNMVAALKEGGFLLVHTVLKGHALGETLACLPSEVQPAPSLLSQEEWESLFSRKALHLVGLKRSFYGTALFLCRRAIPQEKPIFLSVEDTSFQWVDSLKSTLATSSSQPVWLTAMDCPTSGVVGLVNCLRKEPGGHRIRCILLSNLSNTSHAPKLDPGSPELQQVLKHDLVMNVYRDGAWGAFRHFQLEQDKPSKTFCPAHKSYIITGGLGGFGLELARWLVLRGAQRLVLTSRSGIRTGYQAKHIREWRRQGIQVLVSTSNVSSLEGARALIAEATKLGPVGGVFNLAMVLRDAMLENQTPELFQDVNKPKYNGTLNLDRATREACPELDYFVAFSSVSCGRGNAGQTNYGFANSTMERICEQRRHDGLPGLAVQWGAIGDVGIVLEAMGTNDTVIGGTLPQRISSCMEVLDLFLNQPHAVLSSFVLAEKKAVAHGDGDTQRDLVKAVAHILGIRDLAGINLDSTLADLGLDSLMGVEVRQILEREHDLVLPMREVRQLTLRKLQEMSSKTDSATDTT
notes: murine fatty acid synthase 2-2195 with the DH domain (S858 linked with S1104) and the ER domain (P1517 bridged to S1870) deleted; Made from construct 7; also called β-module
For B2, the “stoichiometry N” value turned out to be 2.

The values above are taken from article doi:10.1101/379156, “Probing the Modularity of Megasynthases by Rational Engineering of a Fatty Acid Synthase (FAS) Type I” (bioRxiv, 2018).
